Assay results published in article PMC11118385 (bioRxiv, 2024).
Substitutions are numbered along the chain they refer to. Numbers in names are those of the source.

How the values were obtained:
[1] = target: the molecule itself; experiment: cryo-EM structure
[2] = target: human mitochondrial Hsp70 (mortalin) R126W mutant (human, UniProt P38646 47-679, R126W); experiment: cryo-EM structure
Sequence of human mitochondrial Hsp70 (mortalin) R126W mutant (P38646 47-679 R126W): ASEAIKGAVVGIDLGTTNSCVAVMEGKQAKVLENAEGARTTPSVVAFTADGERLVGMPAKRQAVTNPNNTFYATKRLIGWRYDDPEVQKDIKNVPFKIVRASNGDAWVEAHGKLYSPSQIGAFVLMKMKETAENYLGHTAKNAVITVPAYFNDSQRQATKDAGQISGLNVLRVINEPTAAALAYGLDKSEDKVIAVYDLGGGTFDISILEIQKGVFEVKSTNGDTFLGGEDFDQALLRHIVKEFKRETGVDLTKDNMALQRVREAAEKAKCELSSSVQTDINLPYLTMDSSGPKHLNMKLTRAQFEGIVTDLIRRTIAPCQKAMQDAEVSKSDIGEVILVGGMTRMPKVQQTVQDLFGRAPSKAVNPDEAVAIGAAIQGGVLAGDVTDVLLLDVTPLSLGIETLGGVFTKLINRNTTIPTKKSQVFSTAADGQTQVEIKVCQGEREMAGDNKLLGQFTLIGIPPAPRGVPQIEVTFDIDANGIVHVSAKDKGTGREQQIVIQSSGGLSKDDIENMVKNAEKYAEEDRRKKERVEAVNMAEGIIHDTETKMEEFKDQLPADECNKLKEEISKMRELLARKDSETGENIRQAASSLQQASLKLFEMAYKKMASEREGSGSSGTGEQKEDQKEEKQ

B1: human GrpEL1 (wild type) (natural protein)
chain: CTATKQKNSGQNLEEDMGQSEQKADPPATEKTLLEEKVKLEEQLKETVEKYKRALADTENLRQRSQKLVEEAKLYGIQAFCKDLLEVADVLEKATQCVPKEEIKDDNPHLKNLYEGLVMTEVQIQKVFTKHGLLKLNPVGAKFDPYEHEALFHTPVEGKEPGTVALVSKVGYKLHGRTLRPALVGVVKEA
With B1 the “stoichiometry N” value [1] was 2.

B2: human GrpEL1 Y173A mutant (natural protein)
chain: B1 chain with Y146A
B2: binds [2].
